From patent US20030078370

Experiments:
[1] = test system: GFP protein fused to full length human cyclin E2 [GFP: P42212]
[2] = test system: GFP protein fused to human cyclin E2 splice variant [GFP: P42212]

Substance: hemagluttinin-tagged human cdk2
- phosphorylation of histone H1 (kinase assay with 32P-ATP, autorad) [1]: can phosphorylate histone H1
- phosphorylation of histone H1 (kinase assay with 32P-ATP, autorad) [2]: cannot phosphorylate histone H1
